B1: ZWINT (natural protein)
chain: MEAAETEAEAAALEVLAEVAGILEPVGLQEEAELPAKILVEFVVDSQKKDKLLCSQLQVADFLQNILAQEDTAKGLDPLASEDTSRQKAIAAKEQWKELKATYREHVEAIKIGLTKALTQMEEAQRKRTQLREAFEQLQAKKQMAMEKRRAVQNQWQLQQEKHLQHLAEVSAEVRERKTGTQQELDRVFQKLGNLKQQAEQERDKLQRYQTFLQLLYTLQGKLLFPEAEAEAENLPDDKPQQPTRPQEQSTGDTMGRDPGVSFKAVGLQPAGDVNLP
B2: KNL1 residues 2,026–2,342 (domain or fragment)
chain: SAQNEREKLQIKIDEMDKILKKIDNCLTEMETETKNLEDEEKNNPVEEWDSEMRAAEKELEQLKTEEEELQRNLLELEVQKEQTLAQIDFMQKQRNRTEELLDQLSLSEWDVVEWSDDQAVFTFVYDTIQLTITFEESVVGFPFLDKRYRKIVDVNFQSLLDEDQAPPSSLLVHKLIFQYVEEKESWKKTCTTQHQLPKMLEEFSLVVHHCRLLGEEIEYLKRWGPNYNLMNIDINNNELRLLFSSSAAFAKFEITLFLSAYYPSVPLPSTIQNHVGNTSQDDIATILSKVPLENNYLKNVVKQIYQDLFQDCHFYH
B3: Ndc80 complex (Ndc80C): NDC80^HEC1, NUF2, SPC24, SPC25 (complex)
chain 1: MKRSSVSSGGAGRLSMQELRSQDVNKQGLYTPQTKEKPTFGKLSINKPTSERKVSLFGKRTSGHGSRNSQLGIFSSSEKIKDPRPLNDKAFIQQCIRQLCEFLTENGYAHNVSMKSLQAPSVKDFLKIFTFLYGFLCPSYELPDTKFEEEVPRIFKDLGYPFALSKSSMYTVGAPHTWPHIVAALVWLIDCIKIHTAMKESSPLFDDGQPWGEETEDGIMHNKLFLDYTIKCYESFMSGADSFDEMNAELQSKLKDLFNVDAFKLESLEAKNRALNEQIARLEQEREKEPNRLESLRKLKASLQGDVQKYQAYMSNLESHSAILDQKLNGLNEEIARVELECETIKQENTRLQNIIDNQKYSVADIERINHERNELQQTINKLTKDLEAEQQKLWNEELKYARGKEAIETQLAEYHKLARKLKLIPKGAENSKGYDFEIKFNPEAGANCLVKYRAQVYVPLKELLNETEEEINKALNKKMGLEDTLEQLNAMITESKRSVRTLKEEVQKLDDLYQQKIKEAEEEDEKCASELESLEKHKHLLESTVNQGLSEAMNELDAVQREYQLVVQTTTEERRKVGNNLQRLLEMVATHVGSVEKHLEEQIAKVDREYEECMSEDLSENIKEIRDKYEKKATLIKSSEE
chain 2: METLSFPRYNVAEIVIHIRNKILTGADGKNLTKNDLYPNPKPEVLHMIYMRALQIVYGIRLEHFYMMPVNSEVMYPHLMEGFLPFSNLVTHLDSFLPICRVNDFETADILCPKAKRTSRFLSGIINFIHFREACRETYMEFLWQYKSSADKMQQLNAAHQEALMKLERLDSVPVEEQEEFKQLSDGIQELQQSLNQDFHQKTIVLQEGNSQKKSNISEKTKRLNELKLSVVSLKEIQESLKTKIVDSPEKLKNYKEKMKDTVQKLKNARQEVVEKYEIYGDSVDCLPSCQLEVQLYQKKIQDLSDNREKLASILKESLNLEDQIESDESELKKLKTEENSFKRLMIVKKEKLATAQFKINKKHEDVKQYKRTVIEDCNKVQEKRGAVYERVTTINQEIQKIKLGIQQLKDAAEREKLKSQEIFLNLKTALEKYHDGIEKAAEDSYAKIDEKTAELKRKMFKMST
chain 3: MAAFRDIEEVSQGLLSLLGANRAEAQQRRLLGRHEQVVERLLETQDGAEKQLREILTMEKEVAQSLLNAKEQVHQGGVELQQLEAGLQEAGEEDTRLKASLLQLTRELEELKEIEADLERQEKEVDEDTTVTIPSAVYVAQLYHQVSKIEWDYECEPGMVKGIHHGPSVAQPIHLDSTQLSRKFISDYLWSLVDTEW
chain 4: MVEDELALFDKSINEFWNKFKSTDTSCQMAGLRDTYKDSIKAFAEKLSVKLKEEERMVEMFLEYQNQISRQNKLIQEKKDNLLKLIAEVKGKKQELEVLTANIQDLKEEYSRKKETISTANKANAERLKRLQKSADLYKDRLGLEIRKIYGEKLQFIFTNIDPKNPESPFMFSLHLNEARDYEVSDSAPHLEGLAEFQENVRKTNNFSAFLANVRKAFTATVYN
B4: Mis12 complex (Mis12C), full length: MIS12, PMF1, NSL1, DSN1 (complex)
chain 1: MSVDPMTYEAQFFGFTPQTCMLRIYIAFQDYLFEVMQAVEQVILKKLDGIPDCDISPVQIRKCTEKFLCFMKGHFDNLFSKMEQLFLQLILRIPSNILLPEDKCKETPYSEEDFQHLQKEIEQLQEKYKTELCTKQALLAELEEQKIVQAKLKQTLTFFDELHNVGRDHGTSDFRESLVSLVQNSRKLQNIRDNVEKESKRLKIS
chain 2: MAEASSANLGSGCEEKRHEGSSSESVPPGTTISRVKLLDTMVDTFLQKLVAAGSYQRFTDCYKCFYQLQPAMTQQIYDKFIAQLQTSIREEISDIKEEGNLEAVLNALDKIVEEGKVRKEPAWRPSGIPEKDLHSVMAPYFLQQRDTLRRHVQKQEAENQQLADAVLAGRRQVEELQLQVQAQQQAWQALHREQRELVAVLREPE
chain 3: MAGSPELVVLDPPWDKELAAGTESQALVSATPREDFRVRCTSKRAVTEMLQLCGRFVQKLGDALPEEIREPALRDAQWTFESAVQENISINGQAWQEASDNCFMDSDIKVLEDQFDEIIVDIATKRKQYPRKILECVIKTIKAKQEILKQYHPVVHPLDLKYDPDPAPHMENLKCRGETVAKEISEAMKSLPALIEQGEGFSQVLRMQPVIHLQRIHQEVFSSCHRKPDAKPENFITQIETTPTETASRKTSDMVLKRKQTKDCPQRKWYPLRPKKINLDT
chain 4: MTSVTRSEIIDEKGPVMSKTHDHQLESSLSPVEVFAKTSASLEMNQGVSEERIHLGSSPKKGGNCDLSHQERLQSKSLHLSPQEQSASYQDRRQSWRRASMKETNRRKSLHPIHQGITELSRSISVDLAESKRLGCLLLSSFQFSIQKLEPFLRDTKGFSLESFRAKASSLSEELKHFADGLETDGTLQKCFEDSNGKASDFSLEASVAEMKEYITKFSLERQTWDQLLLHYQQEAKEILSRGSTEAKITEVKVEPMTYLGSSQNEVLNTKPDYQKILQNQSKVFDCMELVMDELQGSVKQLQAFMDESTQCFQKVSVQLGKRSMQQLDPSPARKLLKLQLQNPPAIHGSGSGSCQ

Columns and labels:
[1] = molecular target: T1, KNL1 (construct of the BLI titrations with ZWINT) (human, UniProt Q8NG31); assay: BLI; Kd2 (second site)
T1 chain: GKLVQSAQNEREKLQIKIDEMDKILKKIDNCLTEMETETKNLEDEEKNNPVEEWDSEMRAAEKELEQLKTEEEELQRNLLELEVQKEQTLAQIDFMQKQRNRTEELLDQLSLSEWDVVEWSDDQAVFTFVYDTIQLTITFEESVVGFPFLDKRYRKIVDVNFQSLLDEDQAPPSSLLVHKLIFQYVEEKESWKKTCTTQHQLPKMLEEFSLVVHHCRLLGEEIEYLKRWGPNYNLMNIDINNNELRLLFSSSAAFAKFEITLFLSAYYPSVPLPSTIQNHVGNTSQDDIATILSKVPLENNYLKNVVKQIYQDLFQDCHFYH

[2] = molecular target: T1, KNL1 (construct of the BLI titrations …); assay: BLI; Kd1
Mis12C^M1 = Mis12C^M1 (human, UniProt Q9H081 1-205; Q6P1K2 1-205; Q96IY1 1-281; Q9H410 1-356); assay: ITC
Mis12C^M2 = Mis12C^M2 (human, UniProt Q9H081 1-205; Q6P1K2 1-205; Q96IY1 1-281; Q9H410 1-356); assay: ITC
[3] = molecular target: B4; assay: BLI
[4] = molecular target: T2, Mis12C with KNL1_(2,026–2,342) bound (human, UniProt Q9H081 1-205; Q6P1K2 1-205; Q96IY1 1-281; Q9H410 1-356; Q8NG31 2026-2342); assay: BLI
T2 chain 1: B4 chain 1
T2 chain 2: B4 chain 2
T2 chain 3: B4 chain 3
T2 chain 4: B4 chain 4
T2 chain 5: B2 chain

[5] = molecular target: T2, Mis12C with KNL1_(2,026–2,342) bound; assay: BLI
KNL1^M2 = KNL1^M2 (human, UniProt Q8NG31); assay: ITC
KNL1^M1 = KNL1^M1 (human, UniProt Q8NG31); assay: ITC
SPC24^Y138A/SPC25 = SPC24^Y138A/SPC25 (human, UniProt Q8NBT2 1-197; Q9HBM1 1-224, Y138A); assay: ITC
SPC24/SPC25^L154A-L176A = SPC24/SPC25^L154A-L176A (human, UniProt Q8NBT2 1-197; Q9HBM1 1-224, L154A | L176A); assay: ITC

Work on B1 yielded a Kd [1] of 65.3 nM and a Kd [2] of 81.8 nM.

B2 was tested, and the Kd (Mis12C^M1) was 45.2 nM, the Kd (Mis12C^M2) was 24.8 nM and the koff [3] was 0.000451 s⁻¹.

Work on B3 yielded a koff [4] of 0.00024 s⁻¹, a koff [3] of 0.000582 s⁻¹ and a Kd [5] of 1.15 nM.

Work on B4 yielded a Kd (KNL1^M2) of 109 nM, a Kd (KNL1^M1) of 140 nM and a Kd (SPC24^Y138A/SPC25) of 295 nM. It also gave a Kd (SPC24/SPC25^L154A-L176A) of 1270 nM.

Source: publication PMC11189300 (2024)
